Drawing on the Human Domainome abundance scans (Beltran et al. 2025), this text covers abundance fitness for 91 substances.

± gives the uncertainty stated by the source.

The nature of this data set: abundance fitness (aPCA) (normalised: wild type 0, dead -1); higher = more abundant; growth selection in yeast, the domain comes from the species named. Conditions: Homo sapiens.
In the case of “DnaJ homolog subfamily B member 1 A23D, P25685”, the abundance fitness was -0.852 ± 0.22.
“DnaJ homolog subfamily B member 1 A23E, P25685” showed an abundance fitness of -0.149 ± 0.086.
“DnaJ homolog subfamily B member 1 A23F, P25685”: the abundance fitness is -0.816 ± 0.1.
With “DnaJ homolog subfamily B member 1 A23G, P25685”, the abundance fitness was -0.184 ± 0.08.
Next, “DnaJ homolog subfamily B member 1 A23H, P25685”: -0.312 ± 0.14; “DnaJ homolog subfamily B member 1 A23I, P25685”: -0.819 ± 0.11.
In turn, “DnaJ homolog subfamily B member 1 A23K, P25685” showed an abundance fitness of -0.612 ± 0.11.
As for “DnaJ homolog subfamily B member 1 A23L, P25685”, the abundance fitness is -0.839 ± 0.053.
Turning to “DnaJ homolog subfamily B member 1 A23M, P25685”, the abundance fitness was -0.328 ± 0.068.
The substance “DnaJ homolog subfamily B member 1 A23N, P25685” came in with an abundance fitness of -0.169 ± 0.12.
Consider “DnaJ homolog subfamily B member 1 A23P, P25685”, for which the abundance fitness is -0.917 ± 0.095.
In turn, “DnaJ homolog subfamily B member 1 A23Q, P25685” had an abundance fitness of -0.241 ± 0.13.
For the substance “DnaJ homolog subfamily B member 1 A23R, P25685”, the abundance fitness was -0.442 ± 0.066.
For “DnaJ homolog subfamily B member 1 A23S, P25685”, the abundance fitness is -0.159 ± 0.056.
As to “DnaJ homolog subfamily B member 1 A23T, P25685”, the abundance fitness is -0.339 ± 0.11.
In the case of “DnaJ homolog subfamily B member 1 A23W, P25685”, the abundance fitness was -0.984 ± 0.09.
The substance “DnaJ homolog subfamily B member 1 A23Y, P25685” came in with an abundance fitness of -0.665 ± 0.097.
Regarding “DnaJ homolog subfamily B member 1 A28D, P25685”, the abundance fitness is -0.521 ± 0.21.
Turning to “DnaJ homolog subfamily B member 1 A28E, P25685”, the abundance fitness is -0.116 ± 0.12.
“DnaJ homolog subfamily B member 1 A28F, P25685” came in with an abundance fitness of 0.079 ± 0.14.
Regarding “DnaJ homolog subfamily B member 1 A28G, P25685”, the abundance fitness was -0.106 ± 0.086.
Take “DnaJ homolog subfamily B member 1 A28I, P25685”: the abundance fitness worked out at 0.093 ± 0.095.
In turn, “DnaJ homolog subfamily B member 1 A28K, P25685” returned an abundance fitness of -0.149 ± 0.083.
The same measure for “DnaJ homolog subfamily B member 1 A28L, P25685”: -0.032 ± 0.065; for “DnaJ homolog subfamily B member 1 A28M, P25685”: -0.06 ± 0.088.
On to “DnaJ homolog subfamily B member 1 A28N, P25685”, for which the abundance fitness was -0.119 ± 0.12.
Consider “DnaJ homolog subfamily B member 1 A28P, P25685”, for which the abundance fitness was -0.953 ± 0.16.
“DnaJ homolog subfamily B member 1 A28Q, P25685” returned an abundance fitness of 0.084 ± 0.16.
For the substance “DnaJ homolog subfamily B member 1 A28R, P25685”, the abundance fitness stood at 0.033 ± 0.09.
The same measure for “DnaJ homolog subfamily B member 1 A28S, P25685”: -0.172 ± 0.11.
Consider “DnaJ homolog subfamily B member 1 A28T, P25685”, for which the abundance fitness is -0.094 ± 0.1.
In turn, “DnaJ homolog subfamily B member 1 A28V, P25685” showed an abundance fitness of 0.043 ± 0.081.
On to “DnaJ homolog subfamily B member 1 A28W, P25685”, for which the abundance fitness was 0.024 ± 0.11.
For the substance “DnaJ homolog subfamily B member 1 A28Y, P25685”, the abundance fitness amounted to 0.007 ± 0.14.
As for “DnaJ homolog subfamily B member 1 A41D, P25685”, the abundance fitness was -0.036 ± 0.13.
The same measure for “DnaJ homolog subfamily B member 1 A41E, P25685”: -0.009 ± 0.11; for “DnaJ homolog subfamily B member 1 A41F, P25685”: -0.128 ± 0.25; for “DnaJ homolog subfamily B member 1 A41G, P25685”: -0.104 ± 0.067.
With “DnaJ homolog subfamily B member 1 A41H, P25685”, the abundance fitness is -0.24 ± 0.096.
“DnaJ homolog subfamily B member 1 A41I, P25685”: the abundance fitness was -0.132 ± 0.17.
Take “DnaJ homolog subfamily B member 1 A41K, P25685”: the abundance fitness was -0.178 ± 0.092.
Next, “DnaJ homolog subfamily B member 1 A41L, P25685”: -0.168 ± 0.066; “DnaJ homolog subfamily B member 1 A41M, P25685”: -0.214 ± 0.089; “DnaJ homolog subfamily B member 1 A41N, P25685”: -0.164 ± 0.17.
The substance “DnaJ homolog subfamily B member 1 A41P, P25685” came in with an abundance fitness of -0.432 ± 0.11.
The same measure for “DnaJ homolog subfamily B member 1 A41Q, P25685”: -0.134 ± 0.077.
Next, “DnaJ homolog subfamily B member 1 A41R, P25685”: -0.181 ± 0.07; “DnaJ homolog subfamily B member 1 A41S, P25685”: -0.146 ± 0.072; “DnaJ homolog subfamily B member 1 A41T, P25685”: -0.055 ± 0.068.
Regarding “DnaJ homolog subfamily B member 1 A41V, P25685”, the abundance fitness was -0.02 ± 0.075.
The same measure for “DnaJ homolog subfamily B member 1 A41W, P25685”: -0.255 ± 0.064.
“DnaJ homolog subfamily B member 1 A41Y, P25685” displayed an abundance fitness of -0.631 ± 0.43.
As to “DnaJ homolog subfamily B member 1 A49C, P25685”, the abundance fitness was 0.049 ± 0.12.
Consider “DnaJ homolog subfamily B member 1 A49D, P25685”, for which the abundance fitness was -0.086 ± 0.12.
In turn, “DnaJ homolog subfamily B member 1 A49E, P25685” displayed an abundance fitness of 0.126 ± 0.094.
“DnaJ homolog subfamily B member 1 A49F, P25685” showed an abundance fitness of -0.358 ± 0.15.
The same measure for “DnaJ homolog subfamily B member 1 A49G, P25685”: -0.187 ± 0.12; for “DnaJ homolog subfamily B member 1 A49H, P25685”: -0.132 ± 0.18; for “DnaJ homolog subfamily B member 1 A49I, P25685”: -0.304 ± 0.16.
Next, “DnaJ homolog subfamily B member 1 A49K, P25685”: 0.13 ± 0.13; “DnaJ homolog subfamily B member 1 A49L, P25685”: -0.75 ± 0.086; “DnaJ homolog subfamily B member 1 A49N, P25685”: 0.115 ± 0.17.
With “DnaJ homolog subfamily B member 1 A49P, P25685”, the abundance fitness was -0.743 ± 0.074.
Turning to “DnaJ homolog subfamily B member 1 A49Q, P25685”, the abundance fitness was -0.394 ± 0.086.
The substance “DnaJ homolog subfamily B member 1 A49R, P25685” showed an abundance fitness of 0.021 ± 0.082.
For the substance “DnaJ homolog subfamily B member 1 A49S, P25685”, the abundance fitness was -0.037 ± 0.074.
As for “DnaJ homolog subfamily B member 1 A49T, P25685”, the abundance fitness is 0.094 ± 0.099.
Regarding “DnaJ homolog subfamily B member 1 A49W, P25685”, the abundance fitness was -0.307 ± 0.088.
With “DnaJ homolog subfamily B member 1 A49Y, P25685”, the abundance fitness was -0.277 ± 0.18.
The same measure for “DnaJ homolog subfamily B member 1 A51C, P25685”: -0.755 ± 0.18; for “DnaJ homolog subfamily B member 1 A51D, P25685”: -1.19 ± 0.16.
Substance “DnaJ homolog subfamily B member 1 A51E, P25685” gave an abundance fitness of -0.718 ± 0.098.
The same measure for “DnaJ homolog subfamily B member 1 A51F, P25685”: -1.49 ± 0.19; for “DnaJ homolog subfamily B member 1 A51G, P25685”: -0.628 ± 0.061.
Turning to “DnaJ homolog subfamily B member 1 A51I, P25685”, the abundance fitness was -0.977 ± 0.17.
Turning to “DnaJ homolog subfamily B member 1 A51K, P25685”, the abundance fitness is -0.885 ± 0.15.
Turning to “DnaJ homolog subfamily B member 1 A51L, P25685”, the abundance fitness was -1.06 ± 0.082.
In turn, “DnaJ homolog subfamily B member 1 A51M, P25685” returned an abundance fitness of -1.1 ± 0.085.
Next, “DnaJ homolog subfamily B member 1 A51P, P25685”: -0.488 ± 0.098; “DnaJ homolog subfamily B member 1 A51Q, P25685”: -0.755 ± 0.086.
“DnaJ homolog subfamily B member 1 A51R, P25685” came in with an abundance fitness of -0.84 ± 0.067.
Next, “DnaJ homolog subfamily B member 1 A51S, P25685”: -0.406 ± 0.08; “DnaJ homolog subfamily B member 1 A51T, P25685”: -0.815 ± 0.071.
For “DnaJ homolog subfamily B member 1 A51V, P25685”, the abundance fitness is -0.915 ± 0.065.
As for “DnaJ homolog subfamily B member 1 A51W, P25685”, the abundance fitness was -1.08 ± 0.096.
“DnaJ homolog subfamily B member 1 A51Y, P25685”: the abundance fitness is -0.576 ± 0.39.
The same measure for “DnaJ homolog subfamily B member 1 D4E, P25685”: -0.186 ± 0.19.
As to “DnaJ homolog subfamily B member 1 D4F, P25685”, the abundance fitness was -0.608 ± 0.48.
The substance “DnaJ homolog subfamily B member 1 D4G, P25685” displayed an abundance fitness of -0.398 ± 0.17.
Turning to “DnaJ homolog subfamily B member 1 D4H, P25685”, the abundance fitness is -0.236 ± 0.44.
Next, “DnaJ homolog subfamily B member 1 D4L, P25685”: -0.341 ± 0.23.
